Laboratory results reported in the DeepSol protein solubility set.

experiment: soluble on expression in E. coli; label from the status in PepcDB or PDB records

Soluble on expression in E. coli, not soluble:
MGSDKIHHHHHHMSLLVRAAALTNYCEVARAGGLDPLRMMFDAGISPSVLREPDLMIQVDRFGRLLQTSATLSGNESFGLSMAESRLLSNLGPVGMLIRDQATLRDALGMLMRYQSILNGAKSLAVDECGGRVIIREVLIAGSAHQPTRQRVELALGVMVRLIRQLIKPDWQPQRVCFEHPAPRDLSTHQRFFGPNVAFNCDFNGIVCAKSDLDARNPWADPAMARYAQRLIDESAAARQTTMLEDVRRTILLLLPGGRCSVEQVAENLGVVCRTVQRRLAEQGQSFSSVVNDIRVELAMRHVVESDRPFTEVATLLGFSAPSGFSRWYQTQFGCSPKESRAASAAVGERVTETPSPARSSPTVRPLSRG
MGSDKIHHHHHHMSLPIIKVHWLDHSRAFRLLWLLDHLNLEYEIVPYKRDANFRAPPELKKIHPLGRSPLLEVQDRETGKKKILAESGFIFQYVLQHFDHSHVLMSEDADIADQINYYLFYVEGSLQPPLMIEFILSKVKDSGMPFPISYLARKVADKISQAYSSGEVKNQFDFVEGEISKNNGYLVDGKLSGADILMSFPLQMAFERKFAAPEDYPAISKWLKTITSEESYAASKEKARALGSNF
MGSDKIHHHHHHMSLPYKRWHYFNLIKNSLQKGCLKQQQTLTATTLKRNTIMTVIKQEDFIQSICDAFQFISYYHPKDYIDALYKAWQKEENPAAKDAMTQILVNSRMCAENNRPICQDTGIATVFLKVGMDVQWDADMSVEEMVNEGVRRAYTWEGNTLRASVLADPAGKRQNTKDNTPAVIHMSIVPGDKVEVTCAAKGGGSENKSKLAMLNPSDNIVDWVLKTIPTMGAGWCPPGILGIGIGGTPEKAVLMAKESLMSHIDIQELQEKAASGAELSTTEALRLELFEKVNALGIGAQGLGGLTTVLDVKILDYPTHAASKPIAMIPNCAATRHVEFELDGSGPVELTPPRVEDWPDLTYSPDNGKRVDVDKLTKEEVASWKTGDVLLLNGKILTGRDAAHKRLVDMLDKGEELPVDFTNRLIYYVGPVDPVGDEIVGPAGPTTATRMDKFTRQMLEQTDLLGMIGKSERGAATCEAIADNKAVYLMAVGGAAYLVAKAIKSSKVLAFPELGMEAIYEFEVKDMPVTVAVDSKGESIHATAPPQWQAKIGIIPVKS
MGSDKIHHHHHHMSLSHNRHKKLIEMVQTDGEVRIRDLMVHFNVSEETARRDIKQLEQDGLVVRVHGGAVATQQPKLLTISSRAISELAEKNVIAEIALGLLKPGQNLFFGGGSTVLALARRISMLPEMRIVTNMVDTAIAASEGRRHRVVLLGGDFNGDYRVVTGFAALRTLREQQIDIAFIGVNAVHPTLGVFDHEQGGQELAATLAEQARKITVLADHSKFGRSARYRTLPHSAIATIITDQQPEPHVLTAIEGAGADVLYPPQNPS
MGSDKIHHHHHHMSLSRINIGSFRNITSASLQPCDGLNLIYGQNGSGKTSILEAIYFLGMGRSFRSHLSQRVINNDDDKLTLFAHLIDADRDCKIGLRRHRSGEIEVKIDGEKVKRLSTLAETLPIQVITPESFSLLFEGPKARRQFIDWGAFHSDPHFYQAWVNTRKVLKQRNQLLRNQSSYNQIQFWDKELVRYAEQVTDIRNQYVDSLNVLLKGIIGVFLPRIDIKVSFTRGWDSKTDFAQLLENQYSRDLAAGNTGSGPHKADLRLRVGNLPAQDALSRGQLKLLVCALRIAQGKLLKQQLDKNSIYLVDDLPSELDAQHRQLLLQLLTETGAQIFVTAIDPQAIVDSLSSPPNRMFHVEQGLVTVIE
MGSDKIHHHHHHMSMDIVERINKLKEEKNAVILAHNYQPKEIQKIADFLGDSLELCIKAKETDADIIVFCGVDFMGESAKILNPEKKVLMPEIEGTQCPMAHQLPPEIIKKYRELYPEAPLVVYVNTTAETKALADITCTSANADRVVNSLDADTVLFGPDNNLAYYVQKRTDKKVIAIPEGGGCYVHKKFTIDDLKRVKSKYPNAKVLIHPECSPELQDNADYIASTSGILRIVLESDDEEFIIGTEVGMINRLEIELEKLGKKKTLIPLRKDAICHEMKRITLEKIEKCLLEERYEIKLEKEIIEKAQKAIERMLRI
MGSDKIHHHHHHMSMNISGLGNAYSGVNTNSKQYKALKEKGWLEGVIQNEAMMSPEGKMIYEIFGGRDTIVNNLMKQFDSDGDLLNANGVAGMDVTGKGTSWQKLTNVSEEYRQKMFDNVKKEFIQENGVSNGDTTKRSDIFKDYQLSVNKDKRLSGTWTLEQYEGQYRSAMYAAVKAANPNWKPGQKFDTSILDNVTRESAEATLVKNGNRLVRNSIDVSV
MGSDKIHHHHHHMSNEQLADLTQPQRDRLAFVELRVRFIGEIRRQDLVTRFGIQSAAASRDLALYKELAPGNIDYDSKGKSYVLGPDFRPVFDFPPERVLSWLTQGFGDGEPMRLKAWVASESPSRLTHPDLDVLASVTRAIHQECPLGIEYHSISSGRTEREIVPFALIDNGLRWHVRAFDRKSQEFRDFVITRIKRPVLIRDAEVQSHERSDQDIQWTRIVELEMVPHPDQPRPEITEMDYGMVRGSLRMKLRAATAGYILRQWSVDCSPDHSLRGYEFRLWLKDHLALYGVKNAVLAPGYRSPDQNKGEQ
MGSDKIHHHHHHMSNFGRQIEAFRAVMLTGGMTTAAETLRITQPAISRLIRDLEDDLKIALFHRRGNQITPTVEATAFLAEVERSYLGMDQLRTFAVDLRNSLTGSLRIAALPAMALGFMPYCLAKFSGTRPKLSITLDGIPSHLVLERVAGGQFELGFAAVPADRPMLNTTPIKARAVVVMPEGHPLAKNETVSADQLRNERIVMLDRGNYLRHTIERALGTRAGSPGAIETPLSAIACSFVARGLGVTIIDAFTAINFLGRGIEARLLVPELDFGFAMVTAQQRPMSQLARQFAQEIHLLAEEYQSPIFG
MGSDKIHHHHHHMSNHAIPARLQLRHITKRYPGCLANDAVDLTIQPGEIHALLGENGAGKSTLMKIIYGVTQPDAGSIIWQGQAQIMRNPAQARSLGIGMVFQHFSLFETLSVAQNIALAMGAAAGTPRQLEPRIREVSQRYGMAVEPQRLVHSLSIGERQKVEIIRCLMQDIHLLILDEPTSVLTPQEAEELFVTLRHLASEGCSILFISHKLGEVRALCHSATVLRNGKVSGHCIPAECSDLELARLMVGDAEGLTAHYEKVSGGAAFLQVDRLSWHNPDPFGCSLKDLSLEVCSGEIVGIAGVAGNGQDELLALLSGEQTLPHAQAATLRFANTPVGHLRPDARRKRGLAFVPAERLGHGAVPELSLADNALLTAFQQGLVSNGLIQRGKARALADEIIRRFAVKTPDAQAPARSLSGGNLQKFILGREILQNPKLLIAAHPTWGVDVGAAAAIHRALIALRDAGAAILVISEDLDELFQISDRLAALSGGQLSDLIPTEQTSTVQIGGWMAGQFDHSQTQAHTPG
MGSDKIHHHHHHMSNKLPALHLFGIFEAAARHENFKQAAAELFITPSAVSHQIKALEAFLGFELFQRKSRGVALNAAGKVYLHYVQQGINKLEQGTKIVSNKFSSPSLKISTFTTMASNVIIPTLSDFQQQHPTIDIRIETGMNLTDLRYDDCDLAIRMGKGDWPGVVVKKLLNLTAHAVCSAEFAKKHKLTSPEQISQVPLIDLANMNNIWRTWAGAMQLPEMQYQHKLTFGNYDASLQAAEQGLGLALAIMPIEHALIERNLLVLPFEKSTNFDQSLYAVYREEDQNRNDIHCFLDWLTQSPNLKPI
MGSDKIHHHHHHMSNKLTYIVASGDTYTSIVNKINQSTPLTVSQLADANPSIQANQLQIGQALDIPLSTDGLIPDDNPALLTPAAEFMGYWYPYSASCPKNATLSVALYGWGPQKVIEWGKQADVQSHLNGEKYLSFGGGSESGKFTEQALNEITTAITQGQIKGYDGIAYDVEVADANLGAQFANSFEAAKACGFKVLVTISHSAPYDVADKDQLMKSFFINPHIDILSPQLYSKGDESQNDYALTSGSSITWRDYASTKAAIVPSIVHASYYEAAKIYFKNQGVELSGYLQWK
MGSDKIHHHHHHMSNSDPIERFFRSGLKLPHLRILVSLADLGQVTRVAAAFHVTQPAISKQIAEIEDALGVAVVNRVGNALELTGIGQVIVSCGREVLRHIELAKRDVSALASGTAGHVRVGAVVTIPEPLIANSVQLFIRRAPSASLSFAESTLDRLIRMMDDGELDIALGRNRIAGANSAQSTLKQEILHREPFVFVAGAHHPLGDPDRPTTWADLRGCRWITPMHGSPAYATLVEALAVHDLTPDPGAVESSSLALNVALIRSGDFVSILPMSVARPQVMRGNMRVLPLPPLQPLGEIVAYWRLGSTTPAAQLFNACLKEVSSDLLGERIEAG
MGSDKIHHHHHHMSNVDRAEIAKFEALAHRWWDRESEFKPLHEINPLRVNWIDERVSLAGKKVLDVGCGGGILSEAMALRGATVTGIDMGEAPLAVAQLHQLESGVQVEYRQITAEALAEEMPEQFDVVTCLEMLEHVPDPSSVIRACYRMVKPGGQVFFSTINRNPKAYLLAIVGAEYILKMLPRGTHDFKKFIRPSELGAWSRDAGLQVKDIIGLTYNPLTKHYKLNSDVDVNYMIQTLREE
MGSDKIHHHHHHMSNVKTAEFKRPQLSLPHSADKLLLHSCCAPCSGEVMEAITASGIDYTIFFYNPNIHPQREYLIRKEENIRFAEQHNVPFIDADYDSDNWFERAKGMEWEPERGIRCTMCFDMRFERTALYAAENGFSVISSSLGISRWKNMQQINECGQNAAQKYPGVTYWDYNWRKGGGSARMIEISKREHFYQQEYCGCIYSLRDSNKHRKSQGRDIIRIGKLYYGDEAE
MGSDKIHHHHHHMSQFVVDSSFWSLFPDAKIGVLLLKDYKTPAQSPDELVKLLEESNGIAQKFLTEDTFSENEVIRTYRQAYQKFKTKKGARSSIEALLKRSTSDRPVTTISPLVDIYNAASLRFGLPCGAEDLDTFVGNLQLTVTEGGDEFYLIGDETNNPTLPGEVCYKDDKGAVCRCFNWRDGERTMITDETKNAFLVMELVNSDRVEDLENALDFISQQAETFLGVVPEKYLLDCDRPGIAL
MGSDKIHHHHHHMSQNVYQFIDLQRVDPPKKPLKIRKIEFVEIYEPFSEGQAKAQADRCLSCGNPYCEWKCPVHNYIPNWLKLANEGRIFEAAELSHQTNTLPEVCGRVCPQDRLCEGSCTLNDEFGAVTIGNIERYINDKAFEMGWRPDLSDVKPTGKTVAIIGAGPAGLACADVLTRNGVKAVVFDRHPEIGGLLTFGIPAFKLEKEVMTRRREIFTGMGIEFKLNTEVGRDVQLDDLLKEYDAVFLGVGTYQSMRGGLDNEDAPGVYDALPFLIANTKQIMGFGETADEPYVSMEGKRVVVLGGGDTAMDCVRTSVRQNAAHVICAYRRDEENMPGSKREVKNAREEGVEFQFNVQPLGVEVNANGKVCGVKMARTEMGQPDAKGRRRAEIVPGSEHVVPADAVVMAFGFRPHSMEWLAKHSVEMDSQGRIIAPEGSENAFQTSNPKIFAGGDIVRGSDLVVTAIAEGRKAADGILNYLEV
MGSDKIHHHHHHMSQSIPEPHWHQTPQEFLASWSTSRGNLRRFFEEHALPPIDARTQREAGEAAAELAASELFGIKLDEYTSGLDSVSGSFEAAGAQHVTTANPEIPQDIGAAAFFDIDNTLIQGSSLVVFAMGLAKKKYFKLNEILPVAWKQIKFRVTGNENAHDVAEGRQQALEFIKGRRVDELVALCEEIVDNNMSEKLWPGTKQLADQHIADGQQVWLVSATPVQLAQALAKRLGFTGALGTVAEVKDGVFTGRLVGDILHGPGKLHAVAALATIERLDLSRCTAYSDSINDVPMLSMVGTAVAINPDRPLAKVAKQHGWAVRDYRSLRKAIRTFGIPALVTAAFSFGGWKAWRR
